The record followed here is the nanobody polyreactivity screen of Harvey et al. (2022).

The series can be described thus: yeast display, Sf9 membrane polyspecificity reagent, FACS + sequencing; frameworks hold sequencing errors. The method, boiled down:
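Galactose induction of a Saccharomyces cerevisiae BJ5465 synthetic nanobody display library ran 36–48 hours. The cells were then stained for 1 hour at 4 °C with 10% biotinylated, detergent-solubilized Sf9 membrane reagent, pulled down on streptavidin microbeads and FACS-sorted into low and high (top ~1%) gates on expression and reagent-binding fluorescence. Labels for polyreactivity follow the gate of origin.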
Take “QVQLVESGGGLVQAGGSLRISCAASGRTFSRYAMGGYRQAPGTERELVAAISRRGSSTYYADSVKGRFTISRDNAKNTVYLQINSLKPEDTAVYYCNTVTFPYVPALYDYWGQGTQVTVSS”: the “polyreactivity (PSR sort gate)” value is on record as “high polyreactivity”.

As to “QVQLVESGGGLVQAGGSLRLSCAASGLIFYPYAMGWSRQAPGKEREFVAAITWSGGSTRYADSVKGRFTISRDNAKNTVYLQMNSLNPEDTAVYYCAAAYKWTYYWGQGTQVTVSS”, the “polyreactivity (PSR sort gate)” value is on record as “high polyreactivity”. With “QVQLVESGGGLVQAGGSLRLSCAASGSTFFRNAMGWYRQAPGKERELVAGITSGVTTYYADSVKGRFTISRDNAKNTVYLQMNSLKPEDTAVYYCAVYWRGRGAFTYGSWGQGTQVTVSS”, the “polyreactivity (PSR sort gate)” value is “high polyreactivity”. Under “QVQLVESGGGLVQAGGSLRLSCAASGSIFISYAMGWYRQAPGKARELVAAISRSGGSTYYADSVKGRFTISRDNAKNTVYLQMNSLKPEDTAVYYCAARSYPGKAGMGYWGQGTQVTVSS” stands “high polyreactivity”; under “QVQLVESGGGLVQAGGSLRLSCAASGLILVPNTMGWYRQAPGKERELVAAISYSGGGTYYADSVKGRFTISRDNANNTVYLQMNSLKPEDTAVYYCAAYVKRESAPYGYWGQGTLVTVSS”, “low polyreactivity”. “QVQLVESGGALVQAGGSLRLSSAASGLTFYYYAMGRYRQAPGKERELVAAITGSGGRTYYADSVKGRFTISRDNAKNNVYLQMNSLKPEDTAVYYCAASWPNYLYEYWGQGTQVTVSS”: the “polyreactivity (PSR sort gate)” value is “high polyreactivity”. Turning to “QVQLVESGGGLVQAGGSLLLSCAASGSLFYRYAMGWYRQAPGKERELVAAISWGGGRTYYADSVKGRFTISRDNAKNTVYLQMNRLKPEDTAVYSCNREKYVRWIREDYDYWGQGTQVTVSS”, the “polyreactivity (PSR sort gate)” value is reported as “high polyreactivity”. For “QVQLVESGGGLVQAGGSLRLSCAASGSIFIQYAMGWYRQAPGKERELVAAITGSGGSTYYADSVKGRFTISRDNAKNTVYLQMNSLKPEDTAVYYCATEFKRGYVGFDYWGQGTQVTVSS”, the “polyreactivity (PSR sort gate)” value is recorded as “low polyreactivity”. Under “QVQLVESGGGLVQPGGSLRLSCAASGNTFANYAMGWYRQAPGKERELVAAITSNGGSTYYADSVKGRFTISRDNAKNTVFLQMNSLKPEDTAVYYCAADAAYYSGYDYWGQGTQVTVSS” stands “low polyreactivity”; under “QVQLVESGGGLVQAGGSLRLSCAASGLTFYNYAMGWYIQAPGKERELVATITSSGARTYYADSVKGRFTISRDNAKNTVYLQMNSLTPEDTAVYYCAKQAYDQSPYNYWGQGTQVTVSS”, “high polyreactivity”. With “QVQLEESGGRLVQAGASLRLSCAASGSIFEDYVMGWYRHAPGKERELVADITSGGTTYYADSVKGRFTISRDYAKNTVYLQMNRLKPEATAVYYCNAYLIVDYGDETPYASLHDYWGQGTQVTVSS” the entry was “low polyreactivity”; with “QVQLVESGGGLVQAGGSLRLSCAASGLICPLNAMGWYRQAPGKERELVAAITYSGGGTYYADSVKGRFTISRDNAKNTVDLQMNSLKAEDTAVYYCAADGSVSYYTYYYWGQGTHVTVSS”, “low polyreactivity”; with “QVQLVESGGGIVQAGGSLRLSCAASGGTFNRYAMGWYRQAPGKERELVAAISNGGGRTYYADSVKGRFTISRDNAKNTVYLQMNSLKPEDNSVYYCAKDLTRTSYRSAFDYWGQGTQVTVSS”, “high polyreactivity”.

For the sequence “QVQLVESGGGLVQAGGSLRLSCAASGFIFYYYAMGWYRQAPGKERELVAAISKSGGSTYYADSVKGRFTISRDNAKKTVYLQMNSLIPEDTAVYYCAAVVTTWPYYGFGYWGQGTQVTVSS”, the “polyreactivity (PSR sort gate)” value is “high polyreactivity”. Consider “QVQLVESGGGLVQAGGSLRLSCAASGRTFRVYAMGWYRQAPGKERELVAGIRSRGGSTYYADSVKGRFTISRDYAKNTVYLQMNSLKPEDTAVYYCAAGYYLPQAIYEYWGLGTQVTVSS”, for which the “polyreactivity (PSR sort gate)” value was “high polyreactivity”. With “QVQLVESGGGLVQAGGSLRLSFDASGSIFSFYAMGGYSQAPGKERELVAAIRWSGGRTYYADSVKGRFTISRDPAKNTVYLQMNSLKPEDTAVYYCAADKYLDYDYWGQGTQVTVSS” the entry was “high polyreactivity”; with “QVQLVESGGGLVQAGGSLRLISAASGFIFLFYAMGWYRQAPGKERELVAAISSGVSTNYADSVKGRFTISRDNAKNTVYLQMNCLKPEDTAVYYCTTTQSTSLLYDYWGPGTQVTVSS”, “low polyreactivity”.

As to “QVQLVESGGGLVQAGGSLRLSCAASGRIFKGNAMGWYRQAPGKEREFVAAISQRGGSTYYADSVKGRFTISRDNAKNTVYLQMNSLKPEDTAVYFCAAAAQRPEGYYWGQGTQVTVSS”, the “polyreactivity (PSR sort gate)” value is on record as “high polyreactivity”. With “QVQLVESGGGLVQAGGSLRLSCAASGRIFSLNDMGWYRQAPGKERELVATIRGRGTSTYYADSVKGRFTISRDNAKNTVYLQMNSLKPEDTAVYYCAARGHGAYGYWGQGSQVTVSS” the entry was “low polyreactivity”. With “QVQHVESGGGLVHAGGSLRLSCASSGSIFYPYAMGWYRQAQGKERELVAAIRNGGSTYYTDSVKGRFTISRDNAKNTVYLQMNSLKPEDTAVYYCAASVRRRHPFEYWGQGTQVTVSS” the entry was “high polyreactivity”; with “QVQLVESGGGLVQAGGSLRLSSAASGITFRRYAMVWYRQAPGKERELVASITRGGSTSYADSVKGRFTISRDNAKNTVYLQMNSLKPEDTAVYYCNTRFGYQFDYYYWGQGTQVTVSS”, “high polyreactivity”. Consider “QVQLVESGGGLVQAGGSLRLSCAASGFIFARYAMGWYRQAPGKERELVAAISSSGGITYYADSVKGRFTISRDNAKNTVYFQMNSLKPEDTAVYYCAAPLGGGARWGRWWLYDSWGQGTQVTVSS”, for which the “polyreactivity (PSR sort gate)” value was “low polyreactivity”.

For the sequence “QVQLVESGGGLVQAGGSLRLSCAASGSIFAGNTMGWSRQAPGKEREFVASIRSSSGSTYYADSVKGRFTISRDNAKNTVYLQMNSLKPEDTAVYYCARVAPASGVRWYYYWGQGTQVTVSS”, the “polyreactivity (PSR sort gate)” value was “high polyreactivity”. With “QVQLVESGGGLVQAGGSLRLTCAASGSIFYPYAMGWYRQAPGKERELVAAISWSGGSTYYADSVKGRFTISRDNAKNTVYLQMKSLKPEDTAVYYCNAVGHWFYSSGRYYGDDYWGQGTQVTVSS” the entry was “high polyreactivity”. With “QVQLVESGGGLVQAGGRLRLRCDPSGLTSYYAMGWYRQAPGKERELVSRIRSRSGSTYYADSVKGRFTISRDNAKNTVYLQMNSLKPEDTAVYYCNARQLLYAIRDSWGQVTQVTVSS” the entry was “high polyreactivity”; with “QVQLVESGGGLVQAGGSLRLSCAASGFTFSNYAMGWYRQAPGKEREFVAAISGTGGSTYYADSVKGRFTISRDNAKNTVYLQMNSLKPEDTAVYYCARRRTYPPGRYYYWGQGTQVTVSS”, “high polyreactivity”. With “QVQLVESGGGLVQAGGSLRLSCAASGRIFSYNAMGWYRQAPGKERELFAAISSDGSTYYADSVKGRFTISRDNAKNTVYLEMNSLKPEDTAVYYCAARQVVWFVYTTAQVGSYKVNYWGQGTQVNVSS” the entry was “low polyreactivity”. “QVQLVESGGGLVQAGGNLRLSCAASGSIFPRNAMGWYRQAPGKERELVAAISWRGGSTYYADSVKGRFTISRDNAKNTVYLQMNSLKPEDTAVYYCAATTYRSRYDYWGQGTQVTVSS”: the “polyreactivity (PSR sort gate)” value is recorded as “high polyreactivity”. Under “QVQLVESGGGLVQAGGSLRLSCAASGFTIIRYAMGWYRPAPGKERELVATITRRGGSTYYADSVKGRFTISRDNAKNTVYLQMNSLKPEDTAVYYCAARIRPLYANVRYGYWGQGTQVTVSS” stands “high polyreactivity”. With “QVQLVESGGGLVQAGGSLRLSCAASGRTFFENAMGWYRQAPGKEREFVAAISYNGGSTYYADSVKGRFTISRDNAKNTVYLQMNSLKTEDTAVYYCAADPNYGYDYWGQGTQVTVSS” the entry was “low polyreactivity”.
